Test results from article PMC5562914, “Activation of an anti-bacterial toxin by the biosynthetic enzyme CysK: mechanism of binding, interaction specificity and competition with cysteine synthase” (Scientific Reports, 2017).
“And” between values parts separate entries of the source, which are not always exact repeats. Equal values may be shown once.

How the values were obtained:
[1] = molecular target: CysK from Neisseria lactamica ATCC 23970, His6-tagged (Neisseria lactamica ATCC 23970); test: other fluorescence titration; PLP fluorescence emission at 500 nm; HiCysK (300 nM) or NlCysK (860 nM) titrated with CdiA-CT; read after 20 min; binding isotherm (Eq. 1)
[2] = molecular target: CysK from Haemophilus influenzae, His6 tag removed with thrombin (Haemophilus influenzae) (UniProt P45040); test: as above
[3] = molecular target: T1, CdiA-CT toxin domain from uropathogenic Escherichia coli 536, Q0T963; test: stopped-flow fluorescence; as a5, CysK concentration varied, 37 C; settings: other: stopped-flow fluorescence
T1 chain: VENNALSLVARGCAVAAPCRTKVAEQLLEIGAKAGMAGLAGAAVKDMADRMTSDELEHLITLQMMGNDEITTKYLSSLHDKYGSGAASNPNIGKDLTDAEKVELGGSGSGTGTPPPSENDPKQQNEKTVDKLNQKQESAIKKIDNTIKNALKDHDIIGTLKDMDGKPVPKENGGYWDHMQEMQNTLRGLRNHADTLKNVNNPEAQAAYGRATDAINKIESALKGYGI

[4] = molecular target: T1, CdiA-CT toxin domain from uropathogenic …; test: stopped-flow fluorescence; PLP fluorescence, excitation 412 nm; buffer A; pseudo-first order, 200 nM EcCysK or 270 nM CdiA-CT fixed and the partner varied; 20 C; slope of kobs against concentration; settings: other: stopped-flow fluorescence
[5] = molecular target: T1, CdiA-CT toxin domain from uropathogenic …; test: stopped-flow fluorescence; as a5, CysK concentration varied, 5 C; settings: other: stopped-flow fluorescence
[6] = molecular target: T2, E. coli CysK (EcCysK), O-acetyl-L-Ser sulfhydrylase (E. coli, UniProt P0ABK5 1-323, pyridoxal 5'-phosphate (PLP) cofactor); test: other fluorescence titration; PLP fluorescence (excitation 412 nm, emission 500 nm); 1 uM EcCysK titrated with CdiA-CT to saturation (stoichiometric titration); 20 C; settings: both partners purified
T2 construct: CysK of E. coli; the E. coli cysK gene was amplified and ligated to pCH10068 (pSH21::trxA-TEV-cysK) for the purification of untagged EcCysK; not shown: TrxA, N-terminal, cleaved
T2 sequence (looked up): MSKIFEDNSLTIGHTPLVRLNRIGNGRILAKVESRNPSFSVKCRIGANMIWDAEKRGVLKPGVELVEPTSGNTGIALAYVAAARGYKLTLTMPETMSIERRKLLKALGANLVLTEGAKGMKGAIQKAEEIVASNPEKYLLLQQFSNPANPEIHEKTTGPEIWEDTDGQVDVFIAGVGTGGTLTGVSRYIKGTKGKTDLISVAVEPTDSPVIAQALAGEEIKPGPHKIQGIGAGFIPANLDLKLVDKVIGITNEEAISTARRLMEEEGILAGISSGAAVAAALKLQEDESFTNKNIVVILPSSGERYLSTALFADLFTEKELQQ

[7] = molecular target: T2, E. coli CysK (EcCysK), O-acetyl-L-Ser …; test: inhibition of enzyme activity (sulfhydrylase); 6 nM EcCysK titrated with CdiA-CT; buffer A with 2 mM O-acetyl-L-Ser, 0.6 mM Na2S, 60 nM BSA; Morrison equation gives an apparent IC50, converted to Ki (Eq. 4); settings: both partners purified
[8] = molecular target: T2, E. coli CysK (EcCysK), O-acetyl-L-Ser …; test: other fluorescence titration; PLP fluorescence emission at 500 nm; 80 nM EcCysK titrated with CdiA-CT; data read after 20 min; quadratic tight-binding equation (Eq. 2); 20 C; settings: both partners purified
[9] = molecular target: the molecule itself; test: SEC; Ultrogel AcA44 column, 0.2 mL/min, buffer A
[10] = molecular target: T2, E. coli CysK (EcCysK), O-acetyl-L-Ser …; test: inhibition of enzyme activity (sulfhydrylase); as a3 (6 nM EcCysK titrated with CdiA-CT) in the presence of 2.4 uM CdiI; settings: both partners purified

CdiA-CT toxin domain from uropathogenic Escherichia coli 536 (from UniProt Q0T963 3016-3242) (domain or fragment)
Kd [1]: 6400 nM | Kd [2]: 3300 nM

B1: E. coli CysK (EcCysK), O-acetyl-L-Ser sulfhydrylase (protein)
chain: MSKIFEDNSLTIGHTPLVRLNRIGNGRILAKVESRNPSFSVKCRIGANMIWDAEKRGVLKPGVELVEPTSGNTGIALAYVAAARGYKLTLTMPETMSIERRKLLKALGANLVLTEGAKGMKGAIQKAEEIVASNPEKYLLLQQFSNPANPEIHEKTTGPEIWEDTDGQVDVFIAGVGTGGTLTGVSRYIKGTKGKTDLISVAVEPTDSPVIAQALAGEEIKPGPHKIQGIGAGFIPANLDLKLVDKVIGITNEEAISTARRLMEEEGILAGISSGAAVAAALKLQEDESFTNKNIVVILPSSGERYLSTALFADLFTEKELQQ
second-order rate constant k3/Kd (slope of kobs against CysK concentration, 37 °C) [3]: 0.099 ± 0.019 µM^−1·s^−1 (37 °C) | second-order rate constant k3/Kd (slope of kobs against protein concentration) [4]: 19000 ± 7000 M⁻¹ s⁻¹ and 17000 ± 7000 M⁻¹ s⁻¹ | second-order rate constant k3/Kd (slope of kobs against CysK concentration, 5 °C) [5]: 0.005 ± 0.0003 µM^−1·s^−1 (5 °C)

B2: CdiA-CT toxin domain from uropathogenic Escherichia coli 536 (domain or fragment)
chain: VENNALSLVARGCAVAAPCRTKVAEQLLEIGAKAGMAGLAGAAVKDMADRMTSDELEHLITLQMMGNDEITTKYLSSLHDKYGSGAASNPNIGKDLTDAEKVELGGSGSGTGTPPPSENDPKQQNEKTVDKLNQKQESAIKKIDNTIKNALKDHDIIGTLKDMDGKPVPKENGGYWDHMQEMQNTLRGLRNHADTLKNVNNPEAQAAYGRATDAINKIESALKGYGI
notes: C-terminal toxin domain (CdiA-CT) of CdiA, uropathogenic E. coli 536
stoichiometry N [6]: 1.1 CdiA-CT:EcCysK | IC50 [7]: 15.4 ± 0.6 nM | Ki [7]: 11 ± 0.4 nM | Kd [8]: 10 ± 11 nM

B3: E. coli CysE (EcCysE), serine O-acetyltransferase (enzyme, UniProt P0A9D4 1-273, looked up)
chain: MSCEELEIVWNNIKAEARTLADCEPMLASFYHATLLKHENLGSALSYMLANKLSSPIMPAIAIREVVEEAYAADPEMIASAACDIQAVRTRDPAVDKYSTPLLYLKGFHALQAYRIGHWLWNQGRRALAIFLQNQVSVTFQVDIHPAAKIGRGIMLDHATGIVVGETAVIENDVSILQSVTLGGTGKSGGDRHPKIREGVMIGAGAKILGNIEVGRGAKIGAGSVVLQPVPPHTTAAGVPARIVGKPDSDKPSMDMDQHFNGINHTFEYGDGI
notes: CysE of E. coli; cysE amplified with primers CH3642/CDI235 (the fragment that also gives 'native EcCysE'); not shown: His6-thioredoxin (His6-TrxA), N-terminal, cleaved
stoichiometry N [9]: 6

B4: CdiA-CT in the presence of excess CdiI immunity protein (CdiA-CT:CdiI) (complex)
chain 1: VENNALSLVARGCAVAAPCRTKVAEQLLEIGAKAGMAGLAGAAVKDMADRMTSDELEHLITLQMMGNDEITTKYLSSLHDKYGSGAASNPNIGKDLTDAEKVELGGSGSGTGTPPPSENDPKQQNEKTVDKLNQKQESAIKKIDNTIKNALKDHDIIGTLKDMDGKPVPKENGGYWDHMQEMQNTLRGLRNHADTLKNVNNPEAQAAYGRATDAINKIESALKGYGI
chain 2: MITLRKLIGNINMTKEPEQQSPLELWFERIIDVPLEKLTVEDLCRAIRQNLCIDQLMPRVLEVLTKEPLAGEYYDGELIAALSTIKGEDLKDQKSTFTQIRQLINQLEPSDINDDLRKDILKINQIIV
Ki [10]: 6.4 ± 0.5 nM
